Columns and labels:
[1] = molecular target: human CD40 expressed on cells (human) (UniProt P25942); assay: FACS, HEK293A/humanCD40 cells
[2] = molecular target: human CD40 expressed on cells (human) (UniProt P25942); assay: cell-based or functional assay
[3] = molecular target: recombinant human CD40 (ECD)-his (human) (UniProt P25942); assay: SPR (Biacore 8K), hCD40(ECD)-his coupled to chip, antibody injected
[4] = molecular target: rhesus CD40 expressed on HEK293A cells (rhesus monkey); assay: FACS, HEK293A/rhesusCD40 cells
rhesus CD40 expressed on HEK293A cells (rhesus monkey), sequence (P25942 other isoform, or with tags, fused parts or gaps limits assumed): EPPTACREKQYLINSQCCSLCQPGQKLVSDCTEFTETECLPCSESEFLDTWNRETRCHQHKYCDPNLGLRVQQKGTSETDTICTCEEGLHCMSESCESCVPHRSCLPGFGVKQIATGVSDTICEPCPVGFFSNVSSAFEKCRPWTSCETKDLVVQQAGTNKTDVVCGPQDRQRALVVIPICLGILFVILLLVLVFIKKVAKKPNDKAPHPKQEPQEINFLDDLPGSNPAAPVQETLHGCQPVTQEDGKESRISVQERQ

[5] = molecular target: recombinant rhesus CD40 (ECD)-hFc (rhesus monkey); assay: ELISA, rhCD40(ECD)-hFc coated
recombinant rhesus CD40 (ECD)-hFc (rhesus monkey), sequence (P25942 other isoform, or with tags, fused parts or gaps): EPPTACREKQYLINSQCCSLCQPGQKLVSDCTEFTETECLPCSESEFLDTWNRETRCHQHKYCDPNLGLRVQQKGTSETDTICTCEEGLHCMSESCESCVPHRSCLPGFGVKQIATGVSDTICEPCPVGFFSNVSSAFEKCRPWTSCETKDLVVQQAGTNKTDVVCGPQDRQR

[6] = molecular target: recombinant human CD40 (ECD)-his (human) (UniProt P25942); assay: ELISA, hCD40(ECD)-his coated

RO7009789 (antibody), sequence (VH): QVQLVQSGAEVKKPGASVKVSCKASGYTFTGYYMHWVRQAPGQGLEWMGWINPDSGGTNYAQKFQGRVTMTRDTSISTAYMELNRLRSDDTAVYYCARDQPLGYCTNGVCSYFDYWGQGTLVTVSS
RO7009789 (antibody), sequence (VL): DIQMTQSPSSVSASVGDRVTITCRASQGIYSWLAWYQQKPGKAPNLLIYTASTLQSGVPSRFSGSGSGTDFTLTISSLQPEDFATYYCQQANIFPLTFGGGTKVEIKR
recombinant human CD40 (ECD)-his (human), sequence (P25942 21-193): as the sequence (P25942 other isoform, or with tags, fused parts or gaps) above, with S43G, R56H, L89W, M92T, S95A, P101L, L106S, R142H, Q172L counted along it
human CD40 expressed on cells (human), sequence (P25942 21-277 limits assumed): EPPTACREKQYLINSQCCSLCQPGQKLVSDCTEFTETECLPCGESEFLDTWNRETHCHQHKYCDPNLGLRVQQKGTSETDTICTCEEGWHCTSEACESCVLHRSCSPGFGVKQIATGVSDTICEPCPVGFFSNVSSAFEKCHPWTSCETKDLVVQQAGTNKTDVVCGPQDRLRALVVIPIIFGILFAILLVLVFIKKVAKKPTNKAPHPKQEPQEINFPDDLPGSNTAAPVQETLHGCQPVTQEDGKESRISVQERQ

RO7009789 (antibody) was tested, and the EC50 [1] was 0.227 µg/mL, the HEK Blue EC50 [2] was 0.0233 µg/mL and the Kd [3] was 1.71 nM. The EC50 [4] was 0.185 µg/mL, the EC50 [5] was 0.0162 µg/mL and the EC50 [6] was 0.0207 µg/mL.

— patent US10654939
